In the supplement of paper PMC7125110:
± gives the standard error. Variants at the floor of the assay were thinned out.

B1: glmS ribozyme (parent)
chain: AUAAAAGCGCCAGAACUACAGAAAUGUAGUUGACGAGGAGGAGGUUUAUCGAAUUUUCGGCGGAUGCCUCCAAA

How the values were obtained:
Settings in all cases: with glucosamine-6-phosphate
glucosamine-6-phosphate [1] = variants of: B1; assay: self-cleavage kobs at 640 uM GlcN6P; higher = faster cleavage; RNA array
Method in brief: (§1)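 Ribozyme variants carrying barcodes were transcribed in situ on sequenced MiSeq chips by E. coli RNA polymerase and tracked at 37 °C with a hybridised Cy3 probe. They were exposed to 40 μM to 10 mM glucosamine-6-phosphate in HEPES/KCl/Mg(OAc)2 buffer. kobs came from exponential decay fits of normalised per-tile medians, and kcat and KM from weighted Michaelis–Menten fits.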

glucosamine-6-phosphate [2] = variants of: B1; assay: self-cleavage kobs at 10000 uM GlcN6P; higher = faster cleavage; RNA array
Method in brief: as §1

glucosamine-6-phosphate [3] = variants of: B1; assay: self-cleavage kobs at 2500 uM GlcN6P; higher = faster cleavage; RNA array
Method in brief: as §1

| Variant | self-cleavage kobs at 640 uM GlcN6P (glucosamine-6-phosphate [1]) [s⁻¹] | self-cleavage kobs at 10000 uM GlcN6P (glucosamine-6-phosphate [2]) [s⁻¹] | self-cleavage kobs at 2500 uM GlcN6P (glucosamine-6-phosphate [3]) [s⁻¹] |
| --- | --- | --- | --- |
| AUAAAAGCGCCAGAACUACAGAAAUGUAGUUGACGAGGAACCGGUUUAUCGAAUUUUCGGCGGAUGCCUUCAAA | < 1e-05 |  |  |
| AUAAAAGCGCCAGAACUACAGAAAUGUAGUUGACGAGGACGCGGUUUCUCGUAUUUUCGGCGGAUGCCUCCAAA | < 1e-05 | < 1e-05 |  |
| AUAAAAGCGCCAGAACUACAGAAAUGUAGUUGACGAGGAGCAGGUUAAUCGAAUUCUCGGCGGAUGCCUCCAAA | < 1e-05 |  |  |
| AUAAAAGCGCCAGAACUACAGAAAUGUAGUUGACGAGGAUGAGGUUUAUCGAAUUUUCGGCGGAGACCUCCAAA | 9.33e-05 ± 1.9e-05 |  | 0.000269 ± 8.2e-05 |
| AUAAAAGCGCCAGAACUACAGAAAUGUAGUUGACGAGGAUGAUGUUUACCGAAUUUUCGGCGGAUGCCUCCAAA | < 1e-05 |  | < 1e-05 |
| AUAAAAGCGCCAGAACUACAGAAAUGUAGUUGACGAGGACGAGGUUUAUCCAAUUUUCGGCGCAUGCCUCAAAA | < 1e-05 |  | < 1e-05 |
| AUAAAAGCGCCAGAACUACAGAAAUGUAGUUGACGAGGAAGAGUUUUAUCGAAUUUUCGGCGGAUGCCUCCAAA | < 1e-05 |  |  |
| AUAAAAGCGCCAGAACUACAGAAAUGUAGUUGACGAGGAGCCGGUUUAUGGAAUUUUCGGCGGAUGCCUCCAAA | < 1e-05 |  |  |
| AUAAAAGCGCCAGAACUACAGAAAUGUAGUUGACGAGGACGACGUUUAUCGAAUUUUCGGCGGAUGCCUACAAA | < 1e-05 |  | < 1e-05 |
| AUAAAAGCGCCAGAACUACAGAAAUGUAGUUGACGAGGAUUAGGUUUAUCGAAUUUUCGGCGGAUGCUUCCAAA | < 1e-05 |  | < 1e-05 |
| AUAAAAGCGCCAGAACUACAGAAAUGUAGUUGACGAGGAGAAGGCUUAUCGAAUUUUCGGCGGAUGCCUACAAA | 5.47e-05 ± 1.8e-05 |  |  |
| AUAAAAGCGCCAGAACUACAGAAAUGUAGUUGACGAGGAAGAUGUUUAUAGAAUUUUCGGCGGAUGCCUCCAAA | < 1e-05 |  |  |
| AUAAAAGCGCCAGAACUACAGAAAUGUAGUUGACGAGGACGAGUUUCAUCGAAUAUUCGGCGGAUGCCUCCAAA | < 1e-05 |  | < 1e-05 |
| AUAAAAGCGCCAGAACUACAGAAAUGUAGUUGACGAGGAGAAGGUUUAUCGAUUUGUCGACGGAUGCCUCCAAA | < 1e-05 |  | < 1e-05 |
| AUAAAAGCGCCAGAACUACAGAAAUGUAGUUGACGAGGAGCAGGUUUAUCGAAUUUUCGUCGGACGGAUCCAAA | < 1e-05 |  |  |
| AUAAAAGCGCCAGAACUACAGAAAUGUAGUUGACGAGGAGCAGGUUUAUCGAAUUUUCUGCGGAUGCCUGCAAA | 3.61e-05 ± 1.7e-05 | 0.000122 ± 2.1e-05 | 0.000118 ± 3.1e-05 |
| AUAAAAGCGCCAGAACUACAGAAAUGUAGUUGACGAGGAAGAGGUUUAUCGAAUUUUCGGCGGAGUCCUCCAAA | 0.00012 ± 2.6e-05 |  | 0.000547 ± 0.00026 |
| AUAAAAGCGCCAGAACUACAGAAAUGUAGUUGACGAGGAUGAGGCUUAUCGAAUUUUCGGCGGAUGGCUCCAAA | 4.79e-05 ± 1.9e-05 |  | 7.13e-05 ± 1.7e-05 |
| AUAAAAGCGCCAGAACUACAGAAAUGUAGUUGACGAGGACGAGGUUUGUCGAAUUGUCUGCGGCUGCCUGCAAA | < 1e-05 |  |  |
| AUAAAAGCGCCAGAACUACAGAAAUGUAGUUGACGAGGAUGAUGUUUCUCGAAUUAUCGGCGGAAGCCUCCAAA | < 1e-05 |  |  |
| AUAAAAGCGCCAGAACUACAGAAAUGUAGUUGACGAGGACGAGCUUUAUCGAAUUUUCGGUGGAUGCCUCCAAA | < 1e-05 |  | < 1e-05 |
| AUAAAAGCGCCAGAACUACAGAAAUGUAGUUGACGAGGAGCAGGUUGAUCGAAUUUUCUGCGGAUGCCUCCAAA | < 1e-05 |  | < 1e-05 |
| AUAAAAGCGCCAGAACUACAGAAAUGUAGUUGACGAGGAGCAGAUUUAUCGAAUUUUCGGCGGAUGCCUGCAAA | 0.00128 ± 0.00037 |  | 0.00311 ± 0.00077 |
